Among the data in the RNAGym collection of RNA variant scans (doi:10.1093/molbev/msab373) are reverse-splicing fitness values, retold here.

B1: Azoarcus group I ribozyme (parent)
chain: GUGCCUUGCGCCGGGAAACCACGCAAGGGAUGGUGUCAAAUUCGGCGAAACCUAAGCGCCCGCCCGGGCGUAUGGCAACGCCGAGCCAAGCUUCGGCGCCUGCGCCGAUGAAGGUGUAGAGACUAGACGGCACCCACCUAAGGCAAACGCUAUGGUGAAGGCAUAGUCCAGGGAGUGGCGAAAGUCACACAAACCGG

Variants of B1 are the subject of the data set. Put plainly: reverse-splicing fitness (ratio to wild type); higher = more active; in vitro selection; Mg2+ level not given. The method, boiled down:
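An in vitro group I ribozyme library with randomized positions was T7-transcribed and gel-purified. In triplicate, 10 pmol RNA in EPPS pH 7.5 was reacted with 50 pmoles of a 30-nt RNA substrate for 1 h at 37 °C across several added MgCl2 levels (1–48 mM), then stopped with EDTA. Products were reverse transcribed from a substrate-complementary primer, PCR-amplified and sequenced (HiSeq 4000). Fitness is a variant's read proportion after selection over that before, normalised to wild type.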
As to C82A A111G A120C A145G C150U U176A, the reverse-splicing fitness was 0.0156.

For the variant C82A A111G A120C A145G C150U U176G, the reverse-splicing fitness worked out at 0.00916. To C82A A111G A120C A145U C150A C169A U176A belongs 0.0196; to C82A A111G A120C A145U C150A C169A U176C, 0.0134. To C82A A111G A120C A145U C150A C169A U176G belongs 0.00712; to C82A A111G A120C A145G C150U C169A, 0.012; to C82A A111G A120C A145G C150U C169U, 0.0147. To C82A A111G A120C A145G C150U C169G belongs 0.0101; to C82A A111C A145U C169U U176A, 0.0149; to C82A A111C A145U C169U U176C, 0.0144. As for C82A A111C A145U C169U U176G, the reverse-splicing fitness worked out at 0.00718. Consider C82A A111C C150A C169A U176C, for which the reverse-splicing fitness amounted to 0.0237. Next, C82A A111C C150A C169A U176A: 0.0188; C82A A111C C150A C169A U176G: 0.00857. Next, C82A A111G A120C A145C C169G U176A: 0.0285; C82A A111G A120C A145C C169G U176C: 0.0238. Turning to C82A A111G A120C A145C C169G U176G, the reverse-splicing fitness worked out at 0.00569. To C82A A111G A120C A145G C150U belongs 0.0349. To C82A A111G A120C A145G C150A belongs 0.0137; to C82A A111G A120C A145G C150G, 0.0105; to C82A A111C A145G C150U U176A, 0.0494. Next, C82A A111C A145G C150U U176C: 0.086; C82A A111C A145G C150U U176G: 0.0141; C82A A111G A120C A145G C150G C169A: 0.00974. With C82A A111G A120C A145G C150G C169G, the reverse-splicing fitness worked out at 0.00734. To C82A A111G A120C A145G C150G C169U belongs 0.00967; to C82A A111C A145G C150G C169U U176G, 0.00666; to C82A A111C C150A U176C, 0.0285. As to C82A A111C C150A U176G, the reverse-splicing fitness was determined as 0.0104. Next, C82A A111C C150A U176A: 0.0165. To C82A A111G A120C A145C C169U U176A belongs 0.0161. Consider C82A A111G A120C A145C C169U U176G, for which the reverse-splicing fitness worked out at 0.00478. To C82A A111G A120C A145C C169U U176C belongs 0.0138. To C82A A111C A145U C150U U176C belongs 0.0623. Next, C82A A111C A145U C150U U176A: 0.0486; C82A A111C A145U C150U U176G: 0.0141; C82A A111C A145G C150U C169G U176G: 0.00687.

Turning to C82A A111C A145G C150U C169G U176A, the reverse-splicing fitness was 0.0115. As to C82A A111C A145G C150U C169G U176C, the reverse-splicing fitness is 0.0162. Next, C82A A111C C150U U176G: 0.0134; C82A A111C C150U U176C: 0.0554.

Take C82A A111C C150U U176A: the reverse-splicing fitness is 0.036. Consider C82A A111C A145U C150U C169U U176C, for which the reverse-splicing fitness worked out at 0.0144. To C82A A111C A145U C150U C169U U176G belongs 0.00857; to C82A A111C A145U C150U C169U U176A, 0.0172. Next, C82A A111C C169U U176A: 0.0162; C82A A111C C169U U176C: 0.0187.

On to C82A A111C C169U U176G, for which the reverse-splicing fitness turned out to be 0.00856. To C82A A111C C150G C169A U176C belongs 0.0102; to C82A A111C C150G C169A U176G, 0.00698; to C82A A111C C150G C169A U176A, 0.00958. Next, C82A A111G A120C A145G C150U C169A U176A: 0.0194; C82A A111G A120C A145G C150U C169A U176G: 0.00816.

For the variant C82A A111G A120C A145G C150U C169A U176C, the reverse-splicing fitness came to 0.0172. To C82A A111C A145U C150A C169G U176A belongs 0.014; to C82A A111C A145U C150A C169G U176C, 0.022.

C82A A111C A145U C150A C169G U176G: the reverse-splicing fitness amounted to 0.0087. Turning to C82A A111C A145G C150U C169A, the reverse-splicing fitness stood at 0.0103.

Consider C82A A111C A145G C150U C169U, for which the reverse-splicing fitness came out at 0.0119. For the variant C82A A111C A145G C150U C169G, the reverse-splicing fitness is 0.00915. On to C82A A111C A145U C150G C169U U176G, for which the reverse-splicing fitness was 0.00827. On to C82A A111C A145U C150G C169U U176C, for which the reverse-splicing fitness is 0.0113.

On to C82A A111C A145U C150G C169U U176A, for which the reverse-splicing fitness worked out at 0.00845. Next, C82A A111G A120C A145U C150G: 0.011; C82A A111G A120C A145U C150U: 0.0296; C82A A111G A120C A145U C150A: 0.0115. Next, C82A A111C A145U C150A U176C: 0.0205. Consider C82A A111C A145U C150A U176A, for which the reverse-splicing fitness was found to be 0.0127. Consider C82A A111C A145U C150A U176G, for which the reverse-splicing fitness is 0.00868. To C82A A111C C169G U176A belongs 0.0177; to C82A A111C C169G U176G, 0.00734. Next, C82A A111C C169G U176C: 0.0237; C82A A111G A120C A145C C150U U176A: 0.0118; C82A A111G A120C A145C C150U U176G: 0.00644. To C82A A111G A120C A145C C150U U176C belongs 0.018; to C82A A111C A145U C150A C169A U176A, 0.0148. In the case of C82A A111C A145U C150A C169A U176G, the reverse-splicing fitness amounted to 0.00891.

C82A A111C A145U C150A C169A U176C: the reverse-splicing fitness is 0.0143.

Turning to C82A A111G A120C A145U C150G C169U U176C, the reverse-splicing fitness stood at 0.0102. Turning to C82A A111G A120C A145U C150G C169U U176G, the reverse-splicing fitness amounted to 0.00564. On to C82A A111G A120C A145U C150G C169U U176A, for which the reverse-splicing fitness amounted to 0.00666. For C82A A111G A120C A145C C169G, the reverse-splicing fitness came out at 0.00965.

With C82A A111G A120C A145C C169A, the reverse-splicing fitness came out at 0.00673.
